The values that follow are results of earlier work, collected in PMC7496540.

Series [1] deals with SSB C-terminal peptide C-terminal nine residues (Escherichia coli) (UniProt P0AGE0).
Series [2] addresses λ exonuclease (Escherichia phage lambda) (UniProt P03697).
Sequence of UniProt P03697 (P03697 whole entry): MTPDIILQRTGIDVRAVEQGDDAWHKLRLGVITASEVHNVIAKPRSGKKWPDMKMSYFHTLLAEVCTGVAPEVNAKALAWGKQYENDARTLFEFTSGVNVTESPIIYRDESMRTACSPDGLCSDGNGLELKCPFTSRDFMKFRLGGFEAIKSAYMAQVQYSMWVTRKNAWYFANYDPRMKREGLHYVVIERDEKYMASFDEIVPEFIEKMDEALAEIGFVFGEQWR

Sequence of UniProt P0AGE0 (P0AGE0 whole entry, looked up): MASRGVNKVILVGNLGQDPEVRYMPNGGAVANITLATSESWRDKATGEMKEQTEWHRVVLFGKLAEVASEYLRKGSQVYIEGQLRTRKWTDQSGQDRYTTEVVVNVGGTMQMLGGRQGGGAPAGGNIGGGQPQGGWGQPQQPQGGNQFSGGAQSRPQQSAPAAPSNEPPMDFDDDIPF

As a reminder, the Kd is a measure of binding affinity in units of concentration. On to Redβ (from UniProt P03698), for which the Kd in series [1] was 10 µM; in series [2], 7.9 µM.
